Laboratory results as given in US20210238305A1 (REMEGEN, published 2021).

Target: T1, human epidermal growth factor receptor 2 (Her2) (human, UniProt P04626 23-1255)
T1 construct: whole, on cells; Endogenous Her2 in fixed patient tissue; also called ErbB2
Test: IHC grade, no antigen retrieval, breast carcinoma sample 5 (18-07814-1)

binding result: binds
B1: RC48M antibody (antibody, mouse IgG1, kappa, V domains shown)
VH: EVQLVQSGAEVKKPGATVKISCKVSGYTFTDYYIHWVQQAPGKGLEWMGRVNPDHGDSYYNQKFKDKATITADKSTDTAYMELSSLRSEDTAVYFCARNYLFDHWGQGTLVTVSS
VL: DIQMTQSPSSVSASVGDRVTITCKASQDVGTAVAWYQQKPGKAPKLLIYWASIRHTGVPSRFSGSGSGTDFTLTISSLQPEDFATYYCHQFATYTFGGGTKVEIKR
notes: also called R48M
